Legend:
[1] = biological target: T1, FcγRIIa-H131 (CD32A Protein, Human, Recombinant (167 His, His Tag)) (human, UniProt P12318 34-218, limits assumed); assay: SPR (Biacore 8K), His-tagged FcγRIIa-H131 captured on an anti-His chip, antibody as analyte, endpoint response against concentration
T1 construct: Bought reagent; not shown: His tag
T1 sequence (looked up): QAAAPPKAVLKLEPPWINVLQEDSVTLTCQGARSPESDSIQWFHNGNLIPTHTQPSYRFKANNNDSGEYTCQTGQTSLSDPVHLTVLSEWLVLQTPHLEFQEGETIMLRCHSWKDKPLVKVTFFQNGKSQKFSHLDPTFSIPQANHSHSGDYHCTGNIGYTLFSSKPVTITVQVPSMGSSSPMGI
Procedure: (§1) Binding of BisG1-FAPα-FERL/DR4-FERR to immobilized human His-tagged FcγRs and FcRn was analyzed by SPR using a Biacore 8K SPR system (Cytiva). To this end, anti-His antibodies were covalently immobilized on the surface of Biacore Series S Sensor Chip CM5 (Cytiva, Cat. #29104988) using the Amine Coupling Kit (Cytiva, Cat. #BR100050) and a His Capture Kit (Cytiva, Cat. #29234602) according to the manufacturer's instructions. To assess antibody binding to immobilized human FcγRs, aliquots of the recombinant His-tagged FcγR proteins (Table 24) were diluted in HBS EP+Buffer pH 7.4 (Cytiva, Cat. #BR100669) and used to capture the FcγR proteins on the surface of the anti-His antibody-coated sensors using a flow rate of 10 μL/min and a contact time of 60 s. Captured levels ranged from 434 to 592 RU. After three start-up cycles of HBS-EP+Buffer, concentration ranges of BisG1-FAPα-FERL/DR4-FERR or IgG1-b12 antibodies (Table 25) were injected to generate binding curves on FcγR-captured sensors (active surface). For each antibody sample, a parallel flow cell without captured FcγRs was included (reference surface), which was used for RU background correction.
(§2) All sensorgrams were subtracted by the signal of the third start-up cycle with buffer only (mock analyte). […]

[2] = biological target: T2, FcγRIIb (CD32B/Fcgr2b Protein, Human, Recombinant (His & AVI Tag), Biotinylated) (human, UniProt P31994 43-217, limits assumed, biotinylated); assay: SPR (Biacore 8K), His-tagged FcγRIIb captured on an anti-His chip, antibody as analyte, endpoint response against concentration
T2 construct: Bought reagent; not shown: His & AVI tag
T2 sequence (looked up): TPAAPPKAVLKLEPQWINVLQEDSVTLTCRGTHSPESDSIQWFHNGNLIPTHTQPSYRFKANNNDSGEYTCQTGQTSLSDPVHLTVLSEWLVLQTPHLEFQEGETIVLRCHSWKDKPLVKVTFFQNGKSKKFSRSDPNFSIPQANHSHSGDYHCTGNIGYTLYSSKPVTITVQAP
Procedure: as §1, §2

B1: IgG1-b12 (antibody)
heavy: not shown
light: EIVLTQSPGTLSLSPGERATFSCRSSHSIRSRRVAWYQHKPGQAPRLVIHGVSNRASGISDRFSGSGSGTDFTLTITRVEPEDFALYYCQVYGASSYTFGQGTKLERKRTVAAPSVFIFPPSDEQLKSGTASVVCLLNNFYPREAKVQWKVDNALQSGNSQESVTEQDSKDSTYSLSSTLTLSKADYEKHKVYACEVTHQGLSSPVTKSFNRGEC
notes: HIV gp120 antibody b12 with wild-type IgG1 Fc; also called IgG-b12
B1: binds [1]; binds [2].

— patent US20250002610A1 (Genmab, published 2025)
